Assay results published in patent US7666644B2, “Glyphosate-N-acetyltransferase (GAT) genes” (Verdia, Inc., priority 2004, dated 2010).

Assays:
N[C@@H](CO)C(=O)O = assay: purified protein, by the assay type; conditions: other: 25 mM Hepes, pH 6.8, 10% ethylene glycol
Experimental: (§1) GAT activity of several GAT polypeptides of the present invention was evaluated with respect to a number of amino acid substrates. The GAT polypeptide, AcCoA and amino substrate were incubated in 25 mM Hepes, pH 6.8, 10% ethylene glycol in the wells of a 96-well polystyrene plate. After 30 minutes, the reactions were stopped by the addition of 30 μl of 10 mM 5,5′-dithiobis-2-nitrobenzoate (DTNB) in 500 mM Tris, pH 7.5. After 2 minutes, absorbance was read at 412 nm in a Spectramax Plus plate reader (Molecular Devices, Sunnyvale, Calif.).
O=C(O)CNCP(=O)(O)O = assay: purified protein, by the assay type; conditions: other: 25 mM Hepes, pH 6.8, 10% ethylene glycol
Experimental: as §1
N[C@@H](CC(=O)O)C(=O)O = assay: purified protein, by the assay type; conditions: other: 25 mM Hepes, pH 6.8, 10% ethylene glycol
Experimental: as §1

[1] = Kinetic parameters by continuous spectrophotometric assay in the presence of 20 mM KCl, protein quantified via UV absorbance; assay type: biochemical; conditions: templates GAT 24-5H5 or GAT 25-8H7
Experimental: The further evolved gat genes were first selected for growth in E. coli in minimal M9 medium as described in Example 8, except that 5 mM rather than 1 mM glyphosate was used in the selection. Proteins were purified as described in Example 6 above.
Protein concentrations were determined by UV absorbance at 205 nm. The extinction coefficient was determined by the method described by Scopes (1994; Protein Purification, Principles and Practice, Springer, NewYork) according to the formula E (mg ml^−1 cm^−1)=27+120(A280/A205)=30.5. Prior to quantitation by UV absorbance the protein solution was buffer-exchanged into 50 mM Na2SO4 using a NAP-5 column (Amersham-Pharmacia Biotech).
Error bars represent the standard deviation of multiple assays, where available.

[2] = assay type: physicochemical; conditions: buffer, pH 7.2
Experimental: The half lives of several GAT polypeptides were also measured at 37.5° C. according to the following procedure. GAT polypeptides 401 (SEQ ID NO: 6), 17-15H3 (SEQ ID NO: 601), 20-8H12 (SEQ ID NO: 739), 22-13B12 (SEQ ID NO: 781), 22-15B4 (SEQ ID NO: 946) and 22-18C5 (SEQ ID NO: 795) were incubated in a matrix of 25 mM Hepes, pH 7.2, 10 mM KCl and 10% methanol (“HKM”). At various timepoints, aliquots were withdrawn and assayed in triplicate at 22° C. using the continuous spectrophotometric assay described in Example 7 using saturating concentrations of glyphosate (20 mM for 401, 5 mM for the rest) and AcCoA (167 uM). The standard error at each time point averaged about 2.9%. GAT activity was plotted as a function of incubation time and the data was fitted to a curve for exponential decay (y=e^−x), where y is enzyme activity and x is time in hours, from which half life was calculated.

tobacco plants = assay: Herbicide spray tests of GAT expressing tobacco plants; assay type: in vivo, Nicotiana tabacum
Experimental: Tobacco shoots generated as described in EXAMPLE 9 were excised from the explants and transferred to basal root induction (BRI) medium composed of half-strength Murashige and Skoog (MS) medium, pH 5.7, with 1.5% sucrose, 0.3% Gelrite, 0-200 uM glyphosate and 400 ug/ml Timentin. Rooted plants and axillary shoots were clonally propagated by cutting the stem and transferring it to fresh BRI medium until the desired number of clones was obtained. Rooted plants were carefully removed from the solid medium. Prior to placing the plants into small pots of soil, the roots were washed to remove any remaining Gelrite. A protective plastic cover was kept over the plants for at least one week until the plants were well established.
To determine if GAT expressing tobacco plants could tolerate simulated field rate sprays of glyphosate, clonal lines of several events per GAT variant were tested. A typical test was set up as follows: One clone from each event was sprayed with 1 ml of solution containing the isopropylamine salt of glyphosate (Sigma P5671) and 0.125% Triton X-100, pH 6.8 such that the amount of active ingredient sprayed was equivalent to that present in commercial glyphosate products. For example, to achieve 32 oz/acre (1×) of herbicide containing 40% active ingredient (“ai”), 2.4 ul of 40% ai formulation was diluted into 1 ml water and sprayed on a plant in a 4-inch square pot (16 in^2). A mock application (0×) with surfactant only was also included. In some cases a second spray was applied 1-4 weeks later. Plants were kept in controlled growth rooms at 25° C. and 70% humidity with 16 hr light.
Seed-grown wild type plants were also sprayed. […] All 0× plants were healthy, including the non-GAT control plants. Three weeks later all of the surviving plants were sprayed with an 8× dose.

## native GAT polypeptide 401 (glyphosate-N-acetyltransferase), wild type, SEQ ID NO: 6 (Bacillus licheniformis DSM 13 = ATCC 14580)
N[C@@H](CO)C(=O)O
  Km: 43 MM
  kcat: 14.2 s⁻¹
  kcat/Km: 330 M⁻¹ s⁻¹
O=C(O)CNCP(=O)(O)O
  Km: 1.27 ± 0.0144 MM
  kcat: 0.08917 ± 0.000717 s⁻¹
  kcat/Km: 70.2 M⁻¹ s⁻¹
N[C@@H](CC(=O)O)C(=O)O
  Km: 6.7 MM
  kcat: 0.402 s⁻¹
  kcat/Km: 60 M⁻¹ s⁻¹

## non-native GAT polypeptide 25-8H7 (glyphosate-N-acetyltransferase), SEQ ID NO: 907 (Bacillus licheniformis DSM 13 = ATCC 14580; E119R/E14D/E65Q/E67K/E68K/G37R/G38S/I132T/I135V/I15L/I19V/I53V/I91V/K101R/K144R/K58Q/L105M/L106I/L145I/L26I/L36T/L97I/M75V/R47G/R92K/T33S/T89S/V114A/Y130F/Y31F/Y45F)
O=C(O)CNCP(=O)(O)O
  Km: 0.05 MM
  kcat: 24.7 ± 1.09 s⁻¹
  kcat/Km: 493000 M⁻¹ s⁻¹
N[C@@H](CC(=O)O)C(=O)O
  Km: 4.56 ± 0.112 MM
  kcat: 11.7 ± 0.207 s⁻¹
  kcat/Km: 2570 M⁻¹ s⁻¹

## non-native GAT polypeptide 17-15H3 (glyphosate-N-acetyltransferase), SEQ ID NO: 601 (Bacillus licheniformis DSM 13 = ATCC 14580; E119K/E65Q/E67Q/E68K/G37R/I132T/I135V/I15L/K101R/K144R/K58Q/L145I/L26I/L97I/R47G/R92K/T33S/T89S/V114A/Y130F/Y31F)
N[C@@H](CO)C(=O)O
  Km: 60.1 ± 1.68 MM
  kcat: 4.03 ± 0.263 s⁻¹
  kcat/Km: 67.3 M⁻¹ s⁻¹
O=C(O)CNCP(=O)(O)O
  Km: 0.251 ± 0.0041 MM
  kcat: 19.2 ± 0.46 s⁻¹
  kcat/Km: 76200 M⁻¹ s⁻¹
N[C@@H](CC(=O)O)C(=O)O
  Km: 2.95 ± 0.162 MM
  kcat: 7.25 ± 0.188 s⁻¹
  kcat/Km: 2470 M⁻¹ s⁻¹

B1: R12G1: further evolved GAT enzyme, SEQ ID NO 917 (protein)
chain: MIEVKPINAEDTYDLRHRVLRPNQPIEACMFESDLTRGAFHLGGFYGGKLISVASFHQAEHTELQGKKQYQLRGVATLEGYREQKAGSSLVKHAEEILRKRGADMIWCNARTSASGYYRKLGFSEQGEVFDTPPVGPHILMYKRIT
modifications: R12G1
[1]
  GAT activity compared with the template polypeptides: extremely high GAT activities comparable to those of the template polypeptides

B2: R12G7: further evolved GAT enzyme, SEQ ID NO:929 (protein)
chain: MIEVKPINAEDTYDLRHRVLRPNQPIEACMFDNDLMRGAFHLGGFHGGKLISVASFHQAEHTELQGQKQYQLRGVATLEGYREQKAGSSLVKHAEEILRKRGADMLWCNARTSASGYYRKLGFSEQGEVFDTPPVGPHILMYKRIT
modifications: R12G7
[1]
  GAT activity compared with the template polypeptides: extremely high GAT activities comparable to those of the template polypeptides

B3: R12G4: further evolved GAT enzyme, SEQ ID NO:923 (protein)
chain: MIEVKPINAEDTYELRHRVLRPNQPIEACMFDSDLTRSAFHLGGFYGGKLISVASFHQAEHSELQGKKQYQLRGVATLEGYREQKAGSSLVKHAEEILRKRGADMIWCNARTSASGYYRKLGFSEQGEVFDTPPVGPHILMYKRIT
modifications: R12G4
[1]
  GAT activity compared with the template polypeptides: extremely high GAT activities comparable to those of the template polypeptides

B4: 22-13B12: GAT polypeptide, SEQ ID NO: 781 (protein)
chain: MIEVKPINAEDTYDLRHRVLRPNQPIEACMFESDLMRGAFHLGGFYGGKLISVASFHQAEHSELQGQKQYQLRGMATLEGYREQKAGSSLVKHAEEILRKRGADILWCNARTSASGYYRKLGFSEQGEVFDTPPVGPHILMYKRIT
modifications: D_S00397672_22-13B12
[2]
  Half-life: 67 h

B5: R12G2: further evolved GAT enzyme, SEQ ID NO:919 (protein)
chain: MIEVKPINAEDTYDLRHRVLRPNQPIEACMFESDLTRSAFHLGGFYGGKLISVASFHQAEHTELQGKKQYQLRGVATLEGYREQKAGSSLVKHAEEILRKRGADMIWCNARTSASGYYRKLGFSEQGEVFDTPPVGPHILMYKRIT
modifications: R12G2
[1]
  GAT activity compared with the template polypeptides: extremely high GAT activities comparable to those of the template polypeptides

B6: R12G3: further evolved GAT enzyme, SEQ ID NO:921 (protein)
chain: MIEVKPINAEDTYDLRHRVLRPNQPIEACMFDNDLTRGAFHLGGFYGGKLISVASFHQAEHSELQGKKQYQLRGVATLEGYREQKAGSSLVKHAEEILRKRGADMIWCNARTSASGYYRKLGFSEQGEVFDTPPVGPHILMYKRIT
modifications: R12G3
[1]
  GAT activity compared with the template polypeptides: extremely high GAT activities comparable to those of the template polypeptides

B7: R12G6: further evolved GAT enzyme, SEQ ID NO:927 (protein)
chain: MIEVKPINAEDTYDLRHRVLRPNQPIEACMFDNDLTRSAFHLGGFYGGKLISVASFHQAEHSELQGKKQYQLRGVATLEGYREQKAGSSLVKHAEEILRKRGADMIWCNARTSASGYYRKLGFSEQGEVFDTPPVGPHILMYKRIT
modifications: R12G6
[1]
  GAT activity compared with the template polypeptides: extremely high GAT activities comparable to those of the template polypeptides

B8: R12G5: further evolved GAT enzyme, SEQ ID NO:925 (protein)
chain: MIEVKPINAEDTYELRHRVLRPNQPIEACMFDSDLTRGAFHLGGFYGGKLISVASFHQAEHSELQGKKQYQLRGVATLEGYREQKAGSSLVKHAEEILRKRGADMIWCNARTSASGYYRKLGFSEQGEVFDTPPVGPHILMYKRIT
modifications: R12G5
[1]
  GAT activity compared with the template polypeptides: extremely high GAT activities comparable to those of the template polypeptides

B9: R12G8: further evolved GAT enzyme, SEQ ID NO:931 (protein)
chain: MIEVKPINAEDTYDLRHRVLRPNQPIEACMFDNDLMRSAFHLGGFHGGKLISVASFHQAEHTELQGQKQYQLRGVATLEGYREQKAGSSLVKHAEEILRKRGADMLWCNARTSASGYYRKLGFSEQGEVFDTPPVGPHILMYKRIT
modifications: R12G8
[1]
  GAT activity compared with the template polypeptides: extremely high GAT activities comparable to those of the template polypeptides

B10: 0—5B8: evolved GAT gene, SEQ ID NO:190 (nucleic acid)
DNA: ATGATAGAGGTGAAACCGATTAACGCAGAGGATACCTATGAACTAAGGCATAAAATACTCAGACCAAACCAGCCGATAGAAGCGTGTATGTATGAAAGCGATTTACTTCGTGGTGCATTTCACTTAGGCGGCTTTTACAGGGGCAAACTGATTTCCATAGCTTCATTCCACCAGGCCGAGCACTCAGACCTCCAAGGCCAGAAACAGTACCAGCTCCGAGGTATGGCTACCTTGGAAGGTTATCGTGATCAGAAAGCGGGATCGAGTCTAATTAGACACGCTGAACAAATTCTTCGTAAGAGGGGGGCGGACTTGCTTTGGTGCAATGCGCGGACATCCGCCTCAGGCTACTACAAAAAGTTAGGCTTCAGCGAGCAGGGAGAGATATTTGATACGCCGCCAGTAGGACCTCACATCCTGATGTATAAAAGGCTCACA
modifications: Synthetic nucleic acid sequence; 0_5B8
Tobacco plants; 0.5, 2 or 4× glyphosate (1× = 32 oz/acre of 40% ai), clonally propagated events, average of 5 leaves
  outcome two weeks after glyphosate spray: survived the spraying procedure without signs of glyphosate damage
Tobacco plants; 8× glyphosate three weeks later
  outcome after second spray with an 8× dose: survived
